Residue numbers refer to the chain shown, from its start.
T1: Cynomolgus GPRC5D (Cynomolgus, UniProt Q9NZD1 1-343 (human entry))
T1 construct: Full length, on stably transfected cells (HEK293-cyGPRC5D, CHO-cyGPRC5D); also called cyGPRC5D
T1 chain: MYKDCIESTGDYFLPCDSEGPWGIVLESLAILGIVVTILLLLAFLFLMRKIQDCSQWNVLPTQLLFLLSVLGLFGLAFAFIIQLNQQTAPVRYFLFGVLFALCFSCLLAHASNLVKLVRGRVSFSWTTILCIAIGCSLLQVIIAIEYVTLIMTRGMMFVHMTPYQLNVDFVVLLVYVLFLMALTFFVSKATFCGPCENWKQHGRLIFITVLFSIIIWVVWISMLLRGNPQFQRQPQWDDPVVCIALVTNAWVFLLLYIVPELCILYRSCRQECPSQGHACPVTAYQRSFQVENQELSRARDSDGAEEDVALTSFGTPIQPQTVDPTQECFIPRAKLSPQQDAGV

T2: human BCMA on HEK293-hBCMA cells (human, UniProt Q02223 1-184)
T2 sequence (looked up): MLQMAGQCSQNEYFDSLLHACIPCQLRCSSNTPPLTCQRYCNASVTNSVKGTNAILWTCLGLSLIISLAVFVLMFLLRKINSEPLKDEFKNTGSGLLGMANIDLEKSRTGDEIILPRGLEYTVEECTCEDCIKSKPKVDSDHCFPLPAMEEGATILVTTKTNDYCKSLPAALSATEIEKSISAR

T3: biotinylated BCMA recombinant antigen (Homo sapiens (Human), UniProt Q02223 1-54, Biotinylated; site and chemistry not stated. The letters do not carry the biotin.)
T3 sequence: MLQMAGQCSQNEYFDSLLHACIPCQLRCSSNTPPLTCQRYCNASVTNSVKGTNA

B1: 2F1 × CD3 H4K5 GPRC5D×CD3 κλ bispecific antibody variant (bispecific antibody, human IgG4 S228P, kappa, lambda)
heavy 1: QVQLVQSGAEVKKPGSSVKVSCKASGYSFTGYTMNWVREAPGQGLEWMGLINPYNGGTRYNQKFQGRVTITADESTSTAYMELSSLRSEDTAVYYCARWALRYGMDYWGQGTLVTVSSASTKGPSVFPLAPCSRSTSESTAALGCLVKDYFPEPVTVSWNSGALTSGVHTFPAVLQSSGLYSLSSVVTVPSSSLGTKTYTCNVDHKPSNTKVDKRVESKYGPPCPPCPAPEFEGGPSVFLFPPKPKDTLMISRTPEVTCVVVDVSQEDPEVQFNWYVDGVEVHNAKTKPREEQFNSTYRVVSVLTVLHQDWLNGKEYKCKVSNKGLASSIEKTISKAKGQPREPQVCTLPPSQEEMTKNQVSLSCAVKGFYPSDIAVEWESNGQPENNYKTTPPVLDSDGSFFLVSKLTVDKSRWQEGNVFSCSVMHEALHNHYTQKSLSLSLGK
light 1: DIQMTQSPSSLSASVGDRVTITCQASQNVGTNVAWYQKKPGQAPKALIYSASYLNSGVPSRFSGSGSGTDFTFTISSLQPEDIATYFCQQYNSYLLTFGGGTKVEIKRTVAAPSVFIFPPSDEQLKSGTASVVCLLNNFYPREAKVQWKVDNALQSGNSQESVTEQDSKDSTYSLSSTLTLSKADYEKHKVYACEVTHQGLSSPVTKSFNRGEC
heavy 2: EVQLVESGGGLVQPGGSLRLSCAASGFTFNTYAMNWVRKAPGKGLEWVGRIRSKYNNYATYYADSVKDRFTISRDDSKNSLYLQMNSLKTEDTAVYYCVRHGNFGNSYVSWFAYWGQGTLVTVSSASTKGPSVFPLAPCSRSTSESTAALGCLVKDYFPEPVTVSWNSGALTSGVHTFPAVLQSSGLYSLSSVVTVPSSSLGTKTYTCNVDHKPSNTKVDKRVESKYGPPCPPCPAPEFEGGPSVFLFPPKPKDTLMISRTPEVTCVVVDVSQEDPEVQFNWYVDGVEVHNAKTKPREEQFNSTYRVVSVLTVLHQDWLNGKEYKCKVSNKGLASSIEKTISKAKGQPREPQVYTLPPCQEEMTKNQVSLWCLVKGFYPSDIAVEWESNGQPENNYKTTPPVLDSDGSFFLYSKLTVDKSRWQEGNVFSCSVMHEALHNHYTQKSLSLSLGK
light 2: QAVVTQEPSLTVSPGGTVTLTCRSSTGAVTTSNYANWVQEKPGQAPRGLIGGTNKRAPWTPARFSGSLLGGKAALTITGAQAEDEAEYYCVLWYSNLWVFGGGTKLTVLGQPKAAPSVTLFPPSSEELQANKATLVCLISDFYPGAVTVAWKADSSPVKAGVETTTPSKQSNNKYAASSYLSLTPEQWKSHRSYSCQVTHEGSTVEKTVAPTECS
notes: also called h2F1 H4K5
B2: BCMA × CD3 κλ005 bispecific antibody (bispecific antibody, human IgG4 S228P, kappa, lambda)
heavy 1: QVQLVQSGSELKKPGASVKVSCKASGYIFTNFGMNWVREAPGQGLEWMGWINTYTGEQIYADGFTGRFVFSLDTSVSTAYLQISSLKAEDTAVYFCARGEIYYGYDVGFVYWGQGTLVTVSS
light 1: DIVLTQSPASLAVSPGQRATITCRASKSVSTSGYSYMHWYQKKPGQPPKLLIYLASNLESGVPARFSGSGSGTDFTLTINPVEAEDTANYYCQHSRELPWTFGQGTKVEIKRTVAAPSVFIFPPSDEQLKSGTASVVCLLNNFYPREAKVQWKVDNALQSGNSQESVTEQDSKDSTYSLSSTLTLSKADYEKHKVYACEVTHQGLSSPVTKSFNRGEC
heavy 2: B1 heavy 2
light 2: B1 light 2
notes: they are not tied to the name κλ005 in one sentence; also called BCMA×CD3 bispecific antibody
B3: GPRC5D × BCMA × CD3 triTCE-v2 trispecific antibody (other)
light 1: B2 light 1
heavy 1: QVQLVQSGAEVKKPGSSVKVSCKASGYSFTGYTMNWVRQAPGQCLEWMGLINPYNGGTRYNQKFQGRVTITADESTSTAYMELSSLRSEDTAVYYCARWALRYGMDYWGQGTLVTVSSGGGGSGGGGSGGGGSDIQMTQSPSSLSASVGDRVTITCQASQNVGTNVAWYQQKPGQAPKALIYSASYLNSGVPSRFSGSGSGTDFTFTISSLQPEDIATYFCQQYNSYLLTFGCGTKVEIKGGGGSGGGGSGGGGSQVQLVQSGSELKKPGASVKVSCKASGYIFTNFGMNWVREAPGQGLEWMGWINTYTGEQIYADGFTGRFVFSLDTSVSTAYLQISSLKAEDTAVYFCARGEIYYGYDVGFVYWGQGTLVTVSSASTKGPSVFPLAPCSRSTSESTAALGCLVKDYFPEPVTVSWNSGALTSGVHTFPAVLQSSGLYSLSSVVTVPSSSLGTKTYTCNVDHKPSNTKVDKRVESKYGPPCPPCPAPEFEGGPSVFLFPPKPKDTLMISRTPEVTCVVVDVSQEDPEVQFNWYVDGVEVHNAKTKPREEQFNSTYRVVSVLTVLHQDWLNGKEYKCKVSNKGLASSIEKTISKAKGQPREPQVCTLPPSQEEMTKNQVSLSCAVKGFYPSDIAVEWESNGQPENNYKTTPPVLDSDGSFFLVSKLTVDKSRWQEGNVFSCSVMHEALHNHYTQKSLSLSLGK
light 2: B1 light 2
heavy 2: B1 heavy 2
notes: Trispecific antibody: GPRC5D scFv fused to the N-terminus of the heavy chain of the BCMA arm
B4: 2F1 × CD3 H4K7 GPRC5D×CD3 κλ bispecific antibody variant (bispecific antibody, human IgG4 S228P, kappa, lambda)
heavy 1: B1 heavy 1
light 1: B1 light 1 with L54R
heavy 2: B1 heavy 2
light 2: B1 light 2
notes: also called h2F1 H4K7

Legend:
human GPRC5D [1] = target: T4, human GPRC5D (human, UniProt Q9NZD1 1-345); test: cell-based or functional assay
[2] = target: T5, CD3 receptor on the surface of Jurkat cells (human, UniProt P07766 23-207); test: cell-based or functional assay
human GPRC5D [3] = target: T4, human GPRC5D; test: cell-based or functional assay; remark: listed apart in the source
human GPRC5D [4] = target: T4, human GPRC5D; test: flow cytometry, MM.1R cells
Protocol: The cell suspension of MM.1R cells in logarithmic growth phase was adjusted to a concentration of 5×10⁵ cells/mL, and 100 μL per well was added to a 96-well U-shaped plate, and centrifuged at 300 g for 5 min. The supernatant was discarded. […] The primary antibody was washed away, and 50 μL/well Alexa Fluro647 labeled goat anti-human IgG FC (1:300 dilution) was added, and incubated on ice for 20 min. After washing once, 50 μL/well of PI was added, incubated for 5 min, and detected by flow cytometry.

[5] = target: T5, CD3 receptor on the surface of Jurkat …; test: flow cytometry, Jurkat cells
Protocol: The cell concentration was adjusted with 4% calf serum to 5×10⁵ cells/mL. 100 μL per well was added to a 96-well U-shaped plate, and centrifuged at 300 g. The supernatant was removed. […] The secondary antibody 50 μL/well of Alexa Fluro647 labeled goat anti-human IgG Fc (1:300 dilution) was added, and incubated on ice for 20 min. After washing once, 50 μL/well of PI was added, incubated for 5 min, and detected by flow cytometry.

human GPRC5D [6] = target: T4, human GPRC5D; test: flow cytometry, HEK293-hGPRC5D cells
Protocol: (§1) HEK293-hGPRC5D and HEK293-cyGPRC5D stably transfected cells in logarithmic growth phase were respectively adjusted to a cell density of 5×10⁵ cells/mL. Then, 100 μl/well of the cell suspension was added to a 96-well U-shaped plate, and centrifuged at 300 g for 5 min. The supernatant was discarded. […] The secondary antibody 50 μL/well of Alexa Fluro647 labeled goat anti-human IgG Fe (1:300 dilution) was added, and incubated on ice for 20 min. After washing once, 50 μL/well of PI solution (1:300) was added, incubated for 5 min, and detected by flow cytometry.

human GPRC5D [7] = target: T4, human GPRC5D; test: flow cytometry, HEK293-hGPRC5D cells; remark: listed apart in the source
Protocol: Cell suspensions of HEK293-hGPRC5D and HEK293-hBCMA stably transfected cells in logarithmic growth phase were adjusted to 5×10⁵ cells/ml. Then, 100 μl/well of the cell suspension was added to a 96-well U-shaped plate, and centrifuged at 300 g for 5 min. The supernatant was discarded. 100 μL per well of serially diluted antibody was added, and incubated at 4° C. for 60 min. The secondary antibody 50 μL/well of Alexa Fluro647 labeled goat anti-human IgG Fc (1:300 dilution) was added, and incubated on ice for 20 min. After washing once, 50 μL/well of PI solution was added, incubated for 5 min, and detected by flow cytometry.

Cynomolgus GPRC5D [8] = target: T1, Cynomolgus GPRC5D; test: flow cytometry, HEK293-cyGPRC5D cells
Protocol: as §1

Cynomolgus GPRC5D [9] = target: T1, Cynomolgus GPRC5D; test: flow cytometry, HEK293-cyGPRC5D cells against HEK293-hGPRC5D cells
Protocol: as §1

[10] = target: T2, human BCMA on HEK293-hBCMA cells; test: cell-based or functional assay
[11] = target: T2, human BCMA on HEK293-hBCMA cells; test: flow cytometry, HEK293-hBCMA cells
[12] = target: T3, biotinylated BCMA recombinant antigen; test: BLI, biotinylated antigen on SA probe, antibody as analyte
Description: The affinity of GPRC5D×BCMA×CD3 triTCE antibody to BCMA and CD3 recombinant antigens was detected by Bio-layer interferometry (BLI/Gator prime). Biotinylated BCMA antigen or CD3e antigen was captured by SA probe, and then the signals of binding to and dissociation from the probe were detected by using the triTCE antibody as an analyte.

[13] = target: T6, biotinylated CD3 recombinant antigen (CD3εγ) (Homo sapiens (Human), UniProt P07766 23-126; P09693 23-116, Biotinylated; site and chemistry not stated. The letters do not carry the biotin.); test: as above
T6 construct: also called CD3e antigen; copies: 1 + 1

[14] = target: T5, CD3 receptor on the surface of Jurkat …; test: flow cytometry on Jurkat cells
Protocol: Jurkat cells in logarithmic growth phase were added with 200 μg/mL mouse IgG, and allowed to stand in an ice bath for 30 min. The cells were adjusted with 4% calf serum to 5×10⁵ cells/mL. 100 μL per well was added to a 96-well U-shaped plate, and centrifuged at 300 g. The supernatant was removed. 100 μL per well of serially diluted antibody was added, and incubated at 4° C. for 60 min. The secondary antibody 50 μL/well of Alexa Fluro647 labeled goat anti-human IgG Fc (1:300 dilution) was added, and incubated on ice for 20 min. After washing once, 50 μL/well of PI was added, incubated for 5 min, and detected by flow cytometry.

T4 sequence (Q9NZD1 whole entry): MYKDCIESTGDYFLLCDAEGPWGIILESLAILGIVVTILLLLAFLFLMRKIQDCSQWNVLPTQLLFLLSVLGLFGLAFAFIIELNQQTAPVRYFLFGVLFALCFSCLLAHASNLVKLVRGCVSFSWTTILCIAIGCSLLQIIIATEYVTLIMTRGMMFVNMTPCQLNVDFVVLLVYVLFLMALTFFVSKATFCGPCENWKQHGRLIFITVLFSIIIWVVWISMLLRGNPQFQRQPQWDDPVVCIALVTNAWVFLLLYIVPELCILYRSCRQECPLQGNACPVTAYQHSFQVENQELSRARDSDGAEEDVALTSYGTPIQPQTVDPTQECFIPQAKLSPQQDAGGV
T5 sequence (P07766 23-207): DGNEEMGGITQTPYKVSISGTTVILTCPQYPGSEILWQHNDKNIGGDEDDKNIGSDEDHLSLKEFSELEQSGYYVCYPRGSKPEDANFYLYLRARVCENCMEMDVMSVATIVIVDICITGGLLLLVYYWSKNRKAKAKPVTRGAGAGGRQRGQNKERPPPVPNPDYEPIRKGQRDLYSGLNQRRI
T6 sequence (P07766 23-126 limits assumed, chain 1 of 2): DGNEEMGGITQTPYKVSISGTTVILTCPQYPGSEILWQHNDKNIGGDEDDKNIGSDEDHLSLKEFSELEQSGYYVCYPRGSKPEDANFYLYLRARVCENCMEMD
T6 sequence (P09693 23-116 limits assumed, chain 2 of 2): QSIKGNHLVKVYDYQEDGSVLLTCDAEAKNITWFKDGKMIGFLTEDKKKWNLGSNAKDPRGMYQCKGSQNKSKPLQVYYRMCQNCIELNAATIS

| Binder | TDCC, EC50 (nM), MM.1R (human GPRC5D [1]) [nM] | Jurkat-NFAT-luc, EC50 [2] [nM] | TDCC EC50 (nM), HEK293-hGPRC5D (human GPRC5D [3]) [nM] | TDCC EC50 (nM), MM.1S (human GPRC5D [3]) [nM] | TDCC EC50 (nM), NCI-H929 (human GPRC5D [3]) [nM] | EC50 (human GPRC5D [4]) [nM] | EC50 [5] [nM] | EC50 (human GPRC5D [6]) [nM] | EC50 (human GPRC5D [7]) [nM] | EC50 (Cynomolgus GPRC5D [8]) [nM] | fold difference of affinity, Cynomolgus GPRC5D against human GPRC5D (Cynomolgus GPRC5D [9]) [fold] | TDCC EC50 (nM), HEK293-hBCMA [10] [nM] | EC50 [11] [nM] | Kd [12] [nM] | Kd [13] [nM] | binding result [14] |
| --- | --- | --- | --- | --- | --- | --- | --- | --- | --- | --- | --- | --- | --- | --- | --- | --- |
| B1 | 0.008 | 0.662 | 0.014 | 0.017 | 0.036 | 15.7 | 1.9 | 2.8 | 8.4 | 12.8 | < 5 | – | – | – | – | – |
| B2 | – | – | – | – | – | – | – | – | – | – | – | 0.015 | 1.9 | 1.1 | 45.4 | – |
| B3 | – | – | 0.045 | – | – | – | – | – | 7.9 | – | – | – | – | – | – | binds |
| B4 | 0.009 | 0.774 | – | – | – | 10.2 | 7.2 | 2.3 | – | 6.6 | < 5 | – | – | – | – | – |

Reference: patent US20260116966A1 (KEYMED BIOSCIENCES CHENGDU, published 2026)
